Results published in PMC7994445, “The actomyosin interface contains an evolutionary conserved core and an ancillary interface involved in specificity” (Nature Communications, 2021).

Key:
[1] = target: T1, PfMyoA motor domain (amino acids 1-K768) with a T417D mutation (Plasmodium falciparum, UniProt Q8IDR3 1-768, T417D); assay: cryo-EM structure; PfMyoA motor domain T417D incubated in solution with JAS-stabilized PfAct1 filaments, vitrified within 15 min; nucleotide-free (Rigor) state; helical reconstruction at 3.8 Å; settings: both partners purified
T1 construct: Plasmodium falciparum myosin A (PfMyoA) heavy chain, motor domain, amino acids 1-K768, with the phosphomimetic mutation T417D (TEDS site, HCM loop); Residue K768 is followed by a Gly-Ser linker and the C-terminal FLAG tag; Nucleotide-free (Rigor) in the structure; also called PfMD; PfMyoA motor-domain construct with a T417D mutation
T1 sequence: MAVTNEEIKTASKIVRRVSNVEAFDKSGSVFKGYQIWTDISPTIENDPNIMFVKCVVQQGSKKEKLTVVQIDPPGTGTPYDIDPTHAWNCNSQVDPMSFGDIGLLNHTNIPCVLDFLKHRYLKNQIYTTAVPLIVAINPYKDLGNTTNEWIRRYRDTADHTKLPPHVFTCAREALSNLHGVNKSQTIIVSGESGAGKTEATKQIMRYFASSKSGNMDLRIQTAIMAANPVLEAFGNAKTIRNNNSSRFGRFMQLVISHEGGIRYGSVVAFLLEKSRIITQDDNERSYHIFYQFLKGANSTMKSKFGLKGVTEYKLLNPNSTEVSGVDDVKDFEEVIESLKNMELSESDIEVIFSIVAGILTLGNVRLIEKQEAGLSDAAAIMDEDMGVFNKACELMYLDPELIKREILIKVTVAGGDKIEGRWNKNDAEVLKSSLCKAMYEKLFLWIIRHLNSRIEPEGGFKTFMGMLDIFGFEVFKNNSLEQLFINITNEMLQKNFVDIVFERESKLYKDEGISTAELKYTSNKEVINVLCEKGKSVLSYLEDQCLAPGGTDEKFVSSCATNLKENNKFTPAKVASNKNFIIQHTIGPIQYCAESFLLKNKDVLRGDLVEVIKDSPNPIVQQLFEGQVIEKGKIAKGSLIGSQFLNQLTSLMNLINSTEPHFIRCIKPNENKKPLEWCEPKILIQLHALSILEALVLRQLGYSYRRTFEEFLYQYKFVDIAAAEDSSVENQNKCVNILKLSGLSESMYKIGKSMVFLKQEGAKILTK

[2] = target: the molecule itself; assay: as above

B1: PfActin-1 filaments (natural protein)
chain: not shown
notes: Plasmodium falciparum actin-1; ends at the final native Phe after chymotrypsin cleavage; Filamentous; unstabilised filaments were used in one motility condition; also called PfAct1; P. falciparum actin 1; not shown: His6, C-terminal, cleaved
binding result [1]: binds | binding result [2]: binds
